According to paper PMC8839947, “Highly Sensitive RNA-Based Electrochemical Aptasensor for the Determination of C-Reactive Protein Using Carbon Nanofiber-Chitosan Modified Screen-Printed Electrode”:

Molecular target: T1, C-reactive protein (CRP) (UniProt P02741 19-224)
T1 sequence: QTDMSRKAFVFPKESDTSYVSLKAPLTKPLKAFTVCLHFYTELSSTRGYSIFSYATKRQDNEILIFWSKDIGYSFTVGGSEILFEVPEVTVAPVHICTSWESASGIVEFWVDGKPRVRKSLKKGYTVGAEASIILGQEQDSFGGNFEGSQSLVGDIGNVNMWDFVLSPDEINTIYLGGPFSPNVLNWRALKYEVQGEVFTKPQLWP
Assay: square-wave voltammetry (Langmuir isotherm, MB signal-off electrode); 2 mM CaCl2; 60 min incubation; KL 1.07 pM-1; CRP incubation in 0.1 M Tris pH 7.4, 2 mM CaCl2, 60 min; SWV read-out in PBS (0.1 M, pH 7.4); BSA-blocked electrode; incubation temperature not stated (298 K used in calculations)
Settings: protein: commercial; chain copies: 5; label: methylene blue self-assembled (non-covalent); immobilized via glutaraldehyde on CNFs-chitosan carbon screen-printed electrode

B1: CRP RNA aptamer (5'-amino) (structured_RNA)
RNA: GCCUGUAAGGUGGUCGGUGUGGCGAGUGUGUUAGGAGAGAUUGC
modifications: 5'-NH2-(CH2)6
  Kd: 0.93 pM
